Like-named read-outs stand apart in the source and are kept apart here.
How the values were obtained:
hMPV048 = target: T1, hMPV048 (hMPV A, UniProt Q6WB98 19-102); experiment: BLI, 53C stress
T1 construct: L141C-A161C
Procedure: (§1) The OCTET HTX (Sartorius, Gottingen, Germany) instrument was used to evaluate the expression and conformational integrity for each mutant. All measurements were conducted at 30° C. temperature in 96-well black plates (Corning, Corning, NY) with a final volume of 240 μL per well at a constant agitation rate of 1000 RPM.
(§2) Conformation integrity of hMPV A F protein mutants were evaluated by thermal stress experiments. Crude cell culture supernatants were normalized based on the results of the titer quantitation and then incubated for 1 hour at room temperature and two higher temperatures. […] Anti-Human IgG Fc Capture (AHC) biosensors were first equilibrated in PB before being dipped into more PB to establish the initial baseline. […] The mAb-bound biosensors were then dipped into the thermal stressed cell culture supernatants for 5 minutes. The kinetics analysis was done by OCTET data analysis software (version 12.0, Sartorius) based on curve fitting of the entire associate step.

hMPV061 = target: T2, hMPV061 (hMPV A, UniProt Q6WB98 19-102); experiment: BLI, 53C stress
T2 construct: G106A
Procedure: as §1, §2

hMPV044 = target: T3, hMPV044 (hMPV A, UniProt Q6WB98 19-102); experiment: BLI, 53C stress
T3 construct: T411C-Q434C
Procedure: as §1, §2

hMPV055 = target: T4, hMPV055 (hMPV A, UniProt Q6WB98 19-102); experiment: BLI, 53C stress
T4 construct: N145P
Procedure: as §1, §2

hMPV043 = target: T5, hMPV043 (hMPV A, UniProt Q6WB98 19-102); experiment: BLI, 53C stress
T5 construct: G366C-D454C
Procedure: as §1, §2

hMPV A F WT Control = hMPV A F WT Control (hMPV A, UniProt Q6WB98 19-102); experiment: BLI, 53C stress
Procedure: as §1, §2

hMPV054 = target: T6, hMPV054 (hMPV A, UniProt Q6WB98 19-102); experiment: BLI, 53C stress
T6 construct: S132P
Procedure: as §1, §2

PIV1061 = target: T7, PIV1061 (PIV1); experiment: BLI, 53C stress;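 note: binding of thermally stressed PIV1 F mutant supernatant to mAb on AHC biosensors for 5 min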
T7 construct: Q92L, G134A, A466L, S473L
Procedure: as §1
(§3) Conformation integrity of PIV1 F protein mutants were evaluated by a thermal stress experiment. Crude cell culture supernatants were normalized based on the results of the titer quantitation and then incubated for 1 hour at room temperature and two higher temperatures. For the initial testing of PIV1 mutants, the two temperatures were 50° C. and 53° C. […] Anti-Human IgG Fc Capture (AHC) biosensors were first equilibrated in PB for before being dipped into more PB to establish the initial baseline. […] The mAb-bound biosensors were then dipped into the thermal stresses cell culture supernatants for 5 minutes.

PIV1050 = target: T8, PIV1050 (PIV1); experiment: BLI, 53C stress;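 note: binding of thermally stressed PIV1 F mutant supernatant to mAb on AHC biosensors for 5 min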
T8 construct: F113G, F114S, Q92C-G134C, A466V, S473V, A480V
Procedure: as §1, §3

PIV1055 = target: T9, PIV1055 (PIV1); experiment: BLI, 53C stress;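 note: binding of thermally stressed PIV1 F mutant supernatant to mAb on AHC biosensors for 5 min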
T9 construct: A466L, S473L, G134A
Procedure: as §1, §3

PIV1062 = target: T10, PIV1062 (PIV1); experiment: BLI, 53C stress;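 note: binding of thermally stressed PIV1 F mutant supernatant to mAb on AHC biosensors for 5 min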
T10 construct: F113G, F114S, A466L, S473L, A480L, Q92A, G134L
Procedure: as §1, §3

PIV1056 = target: T11, PIV1056 (PIV1); experiment: BLI, 53C stress
T11 construct: F113G, F114S, A466L, S473L, A480L, Q92A, G134A
Procedure: as §1, §3

PIV1058 = target: T12, PIV1058 (PIV1); experiment: BLI, 53C stress
T12 construct: A466L, S473L, Q92A, G134A
Procedure: as §1, §3

PIV1068 = target: T13, PIV1068 (PIV1); experiment: BLI, 53C stress
T13 construct: A466I, S473I, A480I, Q92L, G134A
Procedure: as §1, §3

PIV1049 = target: T14, PIV1049 (PIV1); experiment: BLI, 53C stress
T14 construct: Q92C-G134C, A466L, S473L
Procedure: as §1, §3

PIV1057 = target: T15, PIV1057 (PIV1); experiment: BLI, 53C stress
T15 construct: A466L, S473L, A480L, Q92A, G134A
Procedure: as §1, §3

PIV1051 = target: T16, PIV1051 (PIV1); experiment: BLI, 53C stress
T16 construct: Q92C-G134C, A466V, S473V, A480V
Procedure: as §1, §3

PIV1063 = target: T17, PIV1063 (PIV1); experiment: BLI, 53C stress
T17 construct: A466L, S473L, A480L, Q92A, G134L
Procedure: as §1, §3

PIV1054 = target: T18, PIV1054 (PIV1); experiment: BLI, 53C stress
T18 construct: A466L, S473L, A480L, G134A
Procedure: as §1, §3

PIV1053 = target: T19, PIV1053 (PIV1); experiment: BLI, 53C stress
T19 construct: F113G, F114S, A466L, S473L, A480L, G134A
Procedure: as §1, §3

[1] = target: T20, PIV1 F literature prefusion comparison (PIV1); experiment: BLI, 53C stress
T20 construct: F113G, F114S, A466I, S473I (Stewart-Jones et al. 2018)
Procedure: as §1, §3

PIV1047 = target: T21, PIV1047 (PIV1); experiment: BLI, 53C stress
T21 construct: F113G, F114S, Q92C-G134C, A466L, S473L, A480L
Procedure: as §1, §3

PIV1064 = target: T22, PIV1064 (PIV1); experiment: BLI, 53C stress
T22 construct: F113G, F114S, Q92C-G134C, A466I, S473I, A480L
Procedure: as §1, §3

PIV1059 = target: T23, PIV1059 (PIV1); experiment: BLI, 53C stress
T23 construct: F113G, F114S, A466L, S473L, A480L, G134A, Q92L
Procedure: as §1, §3

PIV1070 = target: T24, PIV1070 (PIV1); experiment: BLI, 53C stress
T24 construct: F113G, F114S, A466I, S473I, G134A
Procedure: as §1, §3

PIV1069 = target: T25, PIV1069 (PIV1); experiment: BLI, 53C stress
T25 construct: F113G, F114S, A466L, S473L, G134A
Procedure: as §1, §3

[2] = target: T20, PIV1 F literature prefusion comparison; experiment: BLI, 53C stress; remark: listed apart in the source
Procedure: as §1, §3

PIV1039 = target: T26, PIV1039 (PIV1); experiment: BLI, no stress
T26 construct: A128P
Procedure: (§4) All measurements were conducted at 30° C. temperature in 96-well black plates (Corning, Corning, NY) with a final volume of 240 μL per well at a constant agitation rate of 1000 RPM.
as §3

PIV1023 = target: T27, PIV1023 (PIV1); experiment: BLI, no stress
T27 construct: A466L
Procedure: as §4, §3

PIV1030 = target: T28, PIV1030 (PIV1); experiment: BLI, no stress
T28 construct: A466L, S473A
Procedure: as §4, §3

PIV1028 = target: T29, PIV1028 (PIV1); experiment: BLI, no stress
T29 construct: A480L
Procedure: as §4, §3

PIV1014 = target: T30, PIV1014 (PIV1); experiment: BLI, no stress
T30 construct: Q92C-G134C
Procedure: as §4, §3

PIV1026 = target: T31, PIV1026 (PIV1); experiment: BLI, no stress
T31 construct: S473V
Procedure: as §4, §3

PIV1027 = target: T32, PIV1027 (PIV1); experiment: BLI, no stress
T32 construct: S473L
Procedure: as §4, §3

PIV1033 = target: T33, PIV1033 (PIV1); experiment: BLI, no stress
T33 construct: T198A
Procedure: as §4, §3

PIV1024 = target: T34, PIV1024 (PIV1); experiment: BLI, no stress
T34 construct: A466V
Procedure: as §4, §3

PIV1036 = target: T35, PIV1036 (PIV1); experiment: BLI, no stress
T35 construct: G134A
Procedure: as §4, §3

PIV1031 = target: T36, PIV1031 (PIV1); experiment: BLI, no stress
T36 construct: A466L, S473L
Procedure: as §4, §3

B1: hMPV-2 mAb (antibody, V domains shown)
VH: QVQLQQSGAEVKKPGASVKVSCKASGYTFTSYGISWVRQAPGQGLEWMGWISGYNGNTNYAQTFQGTFTMTTDTSTSTAYMELRRLRSGDTAVYYCARDRYYASGSYNGMDVWGQGTTVTVSS
VL: QSALTQPPSASGAPGQRVTVSCSGSSSNVGSSSVYWYQQLPGTAPKLLIYRNNQRPSGVPDRFSGSKSGTSASLAISGLRSEDEADYYCAAWDDSLSGWVFGGGTKLTVLG
notes: human IgG1
For B1, the “Response Shift” value (hMPV048) was -0.059 nm, the “Response Shift” value (hMPV061) was -0.073 nm and the “Response Shift” value (hMPV044) was 0.618 nm. The “Response Shift” value (hMPV055) was -0.073 nm, the “Response Shift” value (hMPV043) was 0.03 nm and the “Response Shift” value (hMPV A F WT Control) was -0.026 nm. For the same binder, the “Response Shift” value (hMPV054) was -0.072 nm.

B2: PIV1-8 mAb (antibody, V domains shown)
VH: QVQLVQSGAEVKKPGSSVKVSCEASGGTFSNYVISWVRQAPGQGLEWMGGIIPVFATAKYAQKFQGRVTIIADQSTNTAYLELSSLRSDDTAVYFCASVDSGGTWWDAFAIWGQGTMVTVSS
VL: QAVVTQPRSVSGSPGQAVTISCTGTSSDVGGYNYVSWYQHHPGKAPKLIIYDVTKRPSGVPDRFSGSKSGNTASLTISGLQTEYEADYYCCSYAGSYTLVFGGGTKLTVLG
notes: human IgG1; also called hPIV1-8 mAb; hPIV1-8
B2 was tested, and the “Response Shift” value (PIV1061) was 0.648 nm, the “Response Shift” value (PIV1050) was 0.907 nm and the “Response Shift” value (PIV1055) was 0.787 nm. For the same binder, the “Response Shift” value (PIV1062) was 0.714 nm, the “Response Shift” value (PIV1056) was 0.805 nm and the “Response Shift” value (PIV1058) was 0.704 nm. For the same binder, the “Response Shift” value (PIV1068) was 0.65 nm, the “Response Shift” value (PIV1049) was 0.883 nm and the “Response Shift” value (PIV1057) was 0.808 nm. For the same binder, the “Response Shift” value (PIV1051) was 0.744 nm, the “Response Shift” value (PIV1063) was -0.036 nm and the “Response Shift” value (PIV1054) was 0.826 nm. For the same binder, the “Response Shift” value (PIV1053) was 0.901 nm, the “Response Shift” value [1] was 0.646 nm and the “Response Shift” value (PIV1047) was 0.862 nm. For the same binder, the “Response Shift” value (PIV1064) was 0.897 nm, the “Response Shift” value (PIV1059) was 0.903 nm and the “Response Shift” value (PIV1070) was 0.84 nm. The “Response Shift” value (PIV1069) was 0.847 nm, the “Response Shift” value [2] was 0.717 nm and the “Response Shift” value (PIV1039) was -0.068 nm. For the same binder, the “Response Shift” value (PIV1023) was 0.831 nm, the “Response Shift” value (PIV1030) was 0.753 nm and the “Response Shift” value (PIV1028) was 0.579 nm. The “Response Shift” value (PIV1014) was 0.857 nm, the “Response Shift” value (PIV1026) was 0.606 nm and the “Response Shift” value (PIV1027) was 0.748 nm. For the same binder, the “Response Shift” value (PIV1033) was -0.056 nm, the “Response Shift” value (PIV1024) was 0.745 nm and the “Response Shift” value (PIV1036) was 0.753 nm. For the same binder, the “Response Shift” value (PIV1031) was 0.766 nm.

— patent US20240252614A1 (Pfizer, published 2024)
